Reference: patent US20040132662A1

Molecular target: Human endothelial cells (ECV304)
Experiment: inhibition of endothelial cell adhesion to pepsinized collagen type IV by soluble monomer

percent inhibition of cell adhesion [%] | Substance
50 | recombinant human type IV collagen NCl (α1) monomer (from UniProt P02462)
50 | recombinant type IV collagen NCl (α2) monomer (from UniProt P08572)
